The source of these data is publication PMC5903163.

In the test the target is glucose-regulated protein 78 (GRP78) (Mesocricetus auratus (endogenous in BHK-21)) (UniProt P07823).
UniProt P07823, sequence (P07823 19-654): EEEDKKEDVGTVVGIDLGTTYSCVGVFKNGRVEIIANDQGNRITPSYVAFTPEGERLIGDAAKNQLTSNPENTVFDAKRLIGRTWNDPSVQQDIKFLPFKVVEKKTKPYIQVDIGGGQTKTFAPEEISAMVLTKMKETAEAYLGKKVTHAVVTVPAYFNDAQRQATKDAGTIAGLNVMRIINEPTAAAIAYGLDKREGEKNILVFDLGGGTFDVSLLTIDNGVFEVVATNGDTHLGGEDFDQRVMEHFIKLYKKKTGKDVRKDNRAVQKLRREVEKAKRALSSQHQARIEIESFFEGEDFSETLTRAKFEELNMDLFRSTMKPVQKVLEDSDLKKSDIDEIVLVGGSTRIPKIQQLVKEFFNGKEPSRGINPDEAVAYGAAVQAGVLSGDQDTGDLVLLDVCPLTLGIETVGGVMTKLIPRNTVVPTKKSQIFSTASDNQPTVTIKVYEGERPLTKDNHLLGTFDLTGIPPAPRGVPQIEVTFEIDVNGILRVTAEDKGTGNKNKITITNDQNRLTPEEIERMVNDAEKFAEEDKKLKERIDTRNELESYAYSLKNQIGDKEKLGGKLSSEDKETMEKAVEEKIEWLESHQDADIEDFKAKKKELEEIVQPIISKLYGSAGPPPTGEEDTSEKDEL

“Tembusu virus (TMUV) JS804, whole virus particle (complex)” gave a TMUV RNA (qRT-PCR, 24 h) in BHK-21 cells pre-incubated with 100 μg/ml anti-GRP78 N-terminal antibody (ab32618) before infection, against rabbit IgG treated cells of 50%.
